{"source": "patent US12187785B2", "about": "“Recombinant protein and fragments thereof, method for producing said recombinant protein, synthetic gene and use of sculptin or recombinant protein for preparing a medicament or pharmaceutical composition for the prophylaxis and/or treatment of thromboembolic diseases or as a direct and specific …” (priority 2017, dated 2025)", "molecules": {"B1": {"name": "GKPQGHPHDALEARSDAVHTAVPKMPKGGHGGFEPIPIDYDERALEARSDAVHTAVPKMPKGGLGGFEPIPIDYDERALEARSDAVHTAVPKMPKGGHGGFEPIPIDYDERALEARSDAVHTAVPKMPKGGHGGFEPIPIDYDERALHALEHHHHHH (protein)", "chain": "GKPQGHPHDALEARSDAVHTAVPKMPKGGHGGFEPIPIDYDERALEARSDAVHTAVPKMPKGGLGGFEPIPIDYDERALEARSDAVHTAVPKMPKGGHGGFEPIPIDYDERALEARSDAVHTAVPKMPKGGHGGFEPIPIDYDERALHALEHHHHHH", "modifications": "Sculptin recombinat protein", "notes": "recombinant His-tagged protein modified from tick sculptin, expressed in E. coli"}}, "key": {"thrombin": {"target": "thrombin (Homo sapiens, UniProt P00734)", "assay": "Degradation of recombinant protein by thrombin (SDS-PAGE and residual thrombin inhibition)", "type": "in vitro ADME", "set-up": "Brown and cyan colors represent heavy and light chain of thrombin respectively", "protocol": "(§1) Recombinant protein (10 μM) was incubated with or without serine protease 1 μM (thrombin, plasmin, trypsin or factor Xa) in phosphate buffer 50 mM containing NaCl 150 mM and 0.1% of PEG 6000, pH 7.4 for 4, 6, 7 or 18 h at 37° C. Reaction mixtures (20 μl) were split by SDS-PAGE. (A) hydrolysis SDS-PAGE (15%) of recombinant protein by serine proteases following 6 h of incubation. (B) Percentage of thrombin inhibition by recombinant protein following 6 h of incubation with serine protease (see experimental procedures). (C) hydrolysis SDS-PAGE (15%) of recombinant protein by serine proteases following 18 h of incubation. (D) Percentage of thrombin inhibition by recombinant protein following 18 h of incubation with serine protease (see experimental procedures). Numbering of (B) and (D) corresponds to numbering of (A) and (C), respectively, and recombinant protein control is represented by CTRL. Recombinant protein (strip 1); thrombin (strip 2) and thrombin with recombinant protein (strip 3); plasmin (strip 4) and plasmin with recombinant protein (strip 5); trypsin (strip 6) and trypsin with recombinant protein (strip 7); factor Xa (strip 8) and factor Xa with recombinant protein (strip 9) and protein marker (strip 10; in A). (E) Identification of cleavage sites of thrombin in recombinant protein following 7 h of incubation. (F) Identification of cleavage sites of factor Xa in recombinant protein following 4 h of incubation. Cleavage sites of thrombin and factor Xa in recombinant protein sequence are shown in FIGS. S1 and S2, respectively. Experimental procedure for (C), (D), (E) and (F) was the same as for (A) and (B), except the incubation time and the type of serine protease used. FIG. 5 discloses “GKPQG” as SEQ ID NO: 18, “MPKGG” as SEQ ID NO: 19, and “SDAVH” as SEQ ID NO: 20.\n(§2) Afterwards, it was determined whether serine proteases, like thrombin, plasmin, factor Xa and trypsin, hydrolyze recombinant protein. […] Upon addition of chromogenic substrate S-2238, the hydrolysis thereof by thrombin was monitored in spectrophotometer way. […]"}, "factor Xa": {"target": "T1, factor Xa (Homo sapiens, UniProt P00742)", "T1 construct": "Serine protease (100 pM; thrombin, plasmin, trypsin or factor Xa) was incubated with recombinant protein; For factor Xa activity, buffer contained phosphatidylserine and phosphatidylcholine 50 μM", "T1 sequence (P00742 235-488 limits assumed)": "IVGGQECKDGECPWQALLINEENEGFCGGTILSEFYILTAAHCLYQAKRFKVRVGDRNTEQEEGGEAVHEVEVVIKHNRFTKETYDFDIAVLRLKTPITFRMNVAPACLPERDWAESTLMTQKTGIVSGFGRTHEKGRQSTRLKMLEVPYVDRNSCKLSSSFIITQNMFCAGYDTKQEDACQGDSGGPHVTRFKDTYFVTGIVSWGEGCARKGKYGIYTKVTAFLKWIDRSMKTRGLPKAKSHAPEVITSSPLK", "T1 sequence (P00742 41-179 limits assumed)": "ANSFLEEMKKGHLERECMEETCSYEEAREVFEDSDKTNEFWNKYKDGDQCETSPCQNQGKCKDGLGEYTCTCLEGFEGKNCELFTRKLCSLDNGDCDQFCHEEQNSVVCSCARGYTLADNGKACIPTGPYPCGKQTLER", "assay": "Degradation of recombinant protein by factor Xa (SDS-PAGE and residual thrombin inhibition)", "type": "in vitro ADME", "settings": "for thrombin inhibition after incubation: diluted to 100 pM", "protocol": "as §1\nAfterwards, it was determined whether serine proteases, like thrombin, plasmin, factor Xa and trypsin, hydrolyze recombinant protein. For this purpose, recombinant protein (10 μM) was incubated with or without serine protease 1 μM (thrombin, plasmin, trypsin or factor Xa) in phosphate buffer 50 mM containing NaCl 150 mM and 0.1% of PEG, pH 7.4 for 6 h or 18 h at 37° C. SDS-PAGE of reaction mixture following 6 h of incubation presented that, compared to control strip of recombinant protein, strip intensity of 20-kDa (corresponding to non-digested recombinant protein) decreased and strips of lower molecular weight appeared in recombinant protein incubated by thrombin (FIG. 5A). […] Upon addition of chromogenic substrate S-2238, the hydrolysis thereof by thrombin was monitored in spectrophotometer way. […]"}, "trypsin": {"target": "T2, trypsin (Bos taurus, UniProt P00760)", "T2 construct": "gene PRSS1", "T2 sequence (P00760 24-246)": "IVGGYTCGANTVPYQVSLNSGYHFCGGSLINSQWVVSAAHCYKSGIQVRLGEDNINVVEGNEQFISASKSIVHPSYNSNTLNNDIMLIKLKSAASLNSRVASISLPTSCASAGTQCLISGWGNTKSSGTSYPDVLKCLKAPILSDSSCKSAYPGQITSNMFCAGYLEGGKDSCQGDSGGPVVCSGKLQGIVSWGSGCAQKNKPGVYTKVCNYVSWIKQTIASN", "assay": "Degradation of recombinant protein by trypsin (SDS-PAGE and residual thrombin inhibition)", "type": "in vitro ADME", "protocol": "as §1, §2"}, "plasmin": {"target": "T3, plasmin (Homo sapiens, UniProt P00747)", "T3 construct": "Serine protease (100 pM; thrombin, plasmin, trypsin or factor Xa) was incubated with recombinant protein", "T3 sequence (P00747 581-810 limits assumed, species assumed)": "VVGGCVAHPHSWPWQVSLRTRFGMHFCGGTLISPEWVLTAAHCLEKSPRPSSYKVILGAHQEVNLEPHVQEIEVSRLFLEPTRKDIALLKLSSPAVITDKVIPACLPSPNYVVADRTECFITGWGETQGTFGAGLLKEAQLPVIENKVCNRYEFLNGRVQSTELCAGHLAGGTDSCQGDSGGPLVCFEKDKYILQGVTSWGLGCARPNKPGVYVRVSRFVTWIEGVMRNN", "T3 sequence (P00747 97-580 limits assumed, species assumed)": "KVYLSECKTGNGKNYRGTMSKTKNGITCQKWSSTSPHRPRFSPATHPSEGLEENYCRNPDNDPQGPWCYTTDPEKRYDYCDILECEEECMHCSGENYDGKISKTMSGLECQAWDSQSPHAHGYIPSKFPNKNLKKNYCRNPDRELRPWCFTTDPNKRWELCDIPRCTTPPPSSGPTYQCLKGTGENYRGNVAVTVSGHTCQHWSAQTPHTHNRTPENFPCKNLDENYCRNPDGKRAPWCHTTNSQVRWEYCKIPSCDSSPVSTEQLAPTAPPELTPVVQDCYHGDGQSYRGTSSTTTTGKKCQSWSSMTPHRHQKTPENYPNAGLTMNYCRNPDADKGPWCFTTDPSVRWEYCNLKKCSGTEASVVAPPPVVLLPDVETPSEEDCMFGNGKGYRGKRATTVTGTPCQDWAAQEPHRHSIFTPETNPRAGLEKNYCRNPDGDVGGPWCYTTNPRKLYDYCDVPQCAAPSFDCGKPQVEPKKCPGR", "assay": "Serine protease inhibition test, plasmin (chromogenic substrate)", "type": "biochemical", "settings": "recombinant protein 1, 100, 200 nM; protease 100 pM; 6 h at 37° C.", "protocol": "(A) Inhibition of serine proteases through recombinant protein. Serine protease (100 pM; thrombin, plasmin, trypsin or factor Xa) was incubated with recombinant protein (1, 100 and 200 nM) in phosphate buffer 50 mM containing NaCl 150 mM and 0.1% of PEG 6000, pH 7.4 for 6 h at 37° C. Following addition of chromogenic substrate corresponding to reaction mixture, hydrolysis thereof was monitored at 405 nm. For factor Xa activity, buffer contained phosphatidylserine and phosphatidylcholine 50 μM. […] (B) Typical curves for hydrolysis of chromogenic substrate S-2238 (15 μM) by thrombin 0.1 nM in absence (trace a) or presence of recombinant protein (trace b, 15 pM; trace c, 30 pM; trace d, 60 pM and trace e, 100 pM) in phosphate buffer 50 mM containing NaCl 150 mM and 0.1% of PEG 6000, pH 7.4 at 37° C. (C) Residual activity of thrombin in presence of increasing concentration of recombinant protein. (D) Dose-response curves for thrombin inhibition by recombinant protein. Percentage of thrombin inhibition was plotted versus the concentration record of recombinant protein. Experimental condition of (C) and (D) is the same as in (B).\nThe first performed experiment was the test of serine proteases inhibition through recombinant protein. […] Hydrolysis of a chromogenic substrate through serine proteases in the presence and absence of recombinant protein was monitored in a spectrophotometer way. […]"}}}
{"molecule": "B1", "values": [{"measurement": "SDS-PAGE strip intensity of 20-kDa (non-digested recombinant protein)", "setting": "thrombin; 10 μM protein with 1 μM thrombin, 6 h at 37° C.", "value": "decreased"}, {"measurement": "SDS-PAGE strip of 20-kDa (recombinant protein monomer)", "setting": "thrombin; 10 μM protein with 1 μM thrombin, 18 h at 37° C.", "value": "completely disappeared"}, {"measurement": "thrombin inhibition after incubation", "setting": "thrombin; after 18 h incubation with thrombin, diluted to 100 pM", "value": "did not inhibit thrombin"}, {"measurement": "SDS-PAGE, hydrolysis of recombinant protein", "setting": "factor Xa; 10 μM protein with 1 μM factor Xa, 6 h at 37° C.", "value": "converted the recombinant protein in fragments"}, {"measurement": "SDS-PAGE strip of 20-kDa (recombinant protein monomer)", "setting": "factor Xa; 10 μM protein with 1 μM factor Xa, 18 h at 37° C.", "value": "completely disappeared"}, {"measurement": "thrombin inhibition after incubation", "setting": "factor Xa; after 6 h digestion with factor Xa, thrombin 100 pM", "value": "retained its thrombin inhibition activity"}, {"measurement": "thrombin inhibition after incubation", "setting": "factor Xa; after 18 h incubation with factor Xa", "value": "even inhibited the thrombin activity"}, {"measurement": "SDS-PAGE strip of 20-kDa (non-digested recombinant protein)", "setting": "trypsin; 10 μM protein with 1 μM trypsin, 6 h at 37° C.", "value": "completely disappeared"}, {"measurement": "SDS-PAGE strip of 20-kDa (recombinant protein monomer)", "setting": "trypsin; 10 μM protein with 1 μM trypsin, 18 h at 37° C.", "value": "completely disappeared"}, {"measurement": "thrombin inhibition after incubation", "setting": "trypsin; after 18 h incubation with trypsin, diluted to 100 pM", "value": "did not inhibit thrombin"}, {"measurement": "inhibition of plasmin", "setting": "plasmin", "value": "did not inhibit"}]}
